Experimental data published in ChEMBL document CHEMBL1122571, “Design and synthesis of tetrahedral intermediate analogues as potential dihydroorotase inhibitors” (J Med Chem, 1984).

Tested on: O=C1CC(C(=O)O)NC(=O)N1
Experiment: Compound was evaluated for the inhibition of dihydroorotase enzyme from mouse Ehrlich ascites at the concentration of 10 uM and at pH 7.37

Substance “Multifunctional protein CAD (Mus musculus), B2RQC6” has a Km of 4 µM.
